Molecular target: T1, mouse serum albumin (mouse, UniProt P07724 25-608)
T1 construct: also called MSA; mouse albumin
Experiment: phage on blotted plasma (1/10)
Protocol: A SDS-PAGE was run for plasma (1/10 dilution) from different species (baboon, pig, hamster, human, rat. mouse and rabbit) and blotted on a nitrocellulose membrane. Phages were prepared for clones MSA 21. […] Phages were allowed to bind to the nitrocellulose blotted serum albumins and unbound phages were washed away. Binding was detected with a anti-M13 polyclonal antibody coupled to HRP. DAP was used as a substrate for detection.

T1 sequence (P07724 25-608 limits assumed): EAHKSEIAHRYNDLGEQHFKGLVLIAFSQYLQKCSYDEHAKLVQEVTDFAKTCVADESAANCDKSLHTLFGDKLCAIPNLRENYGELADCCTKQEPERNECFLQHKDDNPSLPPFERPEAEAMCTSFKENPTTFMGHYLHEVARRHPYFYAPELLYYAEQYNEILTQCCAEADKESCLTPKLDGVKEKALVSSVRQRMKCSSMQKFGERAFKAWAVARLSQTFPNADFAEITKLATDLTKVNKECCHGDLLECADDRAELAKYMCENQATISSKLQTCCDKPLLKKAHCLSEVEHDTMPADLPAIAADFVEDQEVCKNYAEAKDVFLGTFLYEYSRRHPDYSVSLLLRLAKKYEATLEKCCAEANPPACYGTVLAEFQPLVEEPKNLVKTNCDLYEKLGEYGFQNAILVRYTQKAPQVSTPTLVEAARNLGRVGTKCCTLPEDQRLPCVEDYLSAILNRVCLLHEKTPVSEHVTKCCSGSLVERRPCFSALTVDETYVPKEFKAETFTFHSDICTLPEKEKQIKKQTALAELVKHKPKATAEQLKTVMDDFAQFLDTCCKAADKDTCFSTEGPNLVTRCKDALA

B1: MSA24 (VHH)
VHH: QVQLQESGGGLVQPGNSLRLSCAASGFTFRNFGMSWVRQAPGKEPEWVSSISGSGSNTIYADSVKDRFTISRDNAKSTLYLQMNSLKPEDTAVYYCTIGGSLSRSSQGTQVTVSS
  binding result: binds

Source: patent US20150299301A1 (published 2015)
